50 sequences from the supplement of paper PMC9112550, “Optimization of the antimicrobial peptide Bac7 by deep mutational scanning” (BMC Biology, 2022) can be followed below.

For this data set, the system named is Escherichia coli TOP10. The experiment in a line: shrunken log2 fold change of peptide-encoding DNA abundance (4.5 h post-induction vs induction); higher = less antimicrobial activity (less host growth inhibition). The settings on record: time post-induction: 4.5 h; library: site-saturation at positions 5, 18, 19, 20.
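Note: peptides expressed intracellularly from a pBAD plasmid library in pooled LB shake-flask culture, induced with 0.3% L-arabinose, DNA abundance read by NGS, three biological replicates, DESeq2 with apeglm shrinkage.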

Turning to RRIRLRPPRLPRPRPRPDGVPRP, the “shrunken log2 fold change” value was -0.0786. As for RRIRARPPRLPRPRPRPTPAPRP, the figure is 1.05; as for RRIRWRPPRLPRPRPRPCNGPRP, -0.0973. With RRIRFRPPRLPRPRPRPNSMPRP the figure was -1.01; with RRIRDRPPRLPRPRPRPQLCPRP, 0.365. As for RRIRTRPPRLPRPRPRPYCEPRP, the figure is -0.416; as for RRIRGRPPRLPRPRPRPHKHPRP, 0.0984.

Consider RRIRVRPPRLPRPRPRPPKFPRP, for which the “shrunken log2 fold change” value worked out at 0.133. As for RRIRWRPPRLPRPRPRPEPVPRP, the figure is -0.0131; as for RRIRARPPRLPRPRPRPYNDPRP, -1.28. As for RRIRARPPRLPRPRPRPWCRPRP, the figure is 0.0486. With RRIRYRPPRLPRPRPRPNFFPRP the figure was -0.074; with RRIRARPPRLPRPRPRPVGSPRP, 0.383.

Take RRIRIRPPRLPRPRPRPMWIPRP: the “shrunken log2 fold change” value was -0.208. With RRIRNRPPRLPRPRPRPNHQPRP the figure was -0.241. As for RRIRGRPPRLPRPRPRPSQEPRP, the figure is 0.172.

Turning to RRIRPRPPRLPRPRPRPDVVPRP, the “shrunken log2 fold change” value was -0.00973. For the sequence RRIRLRPPRLPRPRPRPQCMPRP, the “shrunken log2 fold change” value was found to be 0.0865. For the sequence RRIRKRPPRLPRPRPRPNRLPRP, the “shrunken log2 fold change” value stood at 0.497. For RRIRIRPPRLPRPRPRPMDGPRP, the “shrunken log2 fold change” value is -0.108. RRIRDRPPRLPRPRPRPVDVPRP: the “shrunken log2 fold change” value is -0.185. On to RRIRWRPPRLPRPRPRPQYAPRP, for which the “shrunken log2 fold change” value is -0.0905.

In the case of RRIRYRPPRLPRPRPRPPFQPRP, the “shrunken log2 fold change” value was -0.22.

For RRIRHRPPRLPRPRPRPWRFPRP, the “shrunken log2 fold change” value came to 0.0342. For the sequence RRIRDRPPRLPRPRPRPNRVPRP, the “shrunken log2 fold change” value is -0.023. With RRIRPRPPRLPRPRPRPEWCPRP the figure was -0.0771. On to RRIRWRPPRLPRPRPRPDQSPRP, for which the “shrunken log2 fold change” value was determined as 0.0237.

RRIRWRPPRLPRPRPRPKQTPRP: the “shrunken log2 fold change” value turned out to be 0.578. For RRIRKRPPRLPRPRPRPQGPPRP, the “shrunken log2 fold change” value came out at 0.053.

Turning to RRIRIRPPRLPRPRPRPGEEPRP, the “shrunken log2 fold change” value is -0.0165. As for RRIRFRPPRLPRPRPRPAHLPRP, the figure is -0.0824. As for RRIRIRPPRLPRPRPRPETVPRP, the figure is -0.344; as for RRIRLRPPRLPRPRPRPCIEPRP, -0.256.

Consider RRIRNRPPRLPRPRPRPNMSPRP, for which the “shrunken log2 fold change” value is -0.0455. As for RRIRHRPPRLPRPRPRPYINPRP, the figure is -0.862. Take RRIRLRPPRLPRPRPRPQLKPRP: the “shrunken log2 fold change” value is -0.0336. With RRIRARPPRLPRPRPRPQTHPRP the figure was 0.491; with RRIRKRPPRLPRPRPRPSSCPRP, 0.31.

Consider RRIRGRPPRLPRPRPRPMRFPRP, for which the “shrunken log2 fold change” value is 0.112. Regarding RRIRNRPPRLPRPRPRPEHMPRP, the “shrunken log2 fold change” value is -0.0791. With RRIRTRPPRLPRPRPRPGWYPRP the figure was -0.23; with RRIRFRPPRLPRPRPRPAHRPRP, 0.418; with RRIRPRPPRLPRPRPRPDQTPRP, 0.0118.

Turning to RRIRQRPPRLPRPRPRPVQYPRP, the “shrunken log2 fold change” value was -0.0137. With RRIRRRPPRLPRPRPRPMGDPRP the figure was -0.251. For RRIRIRPPRLPRPRPRPIHQPRP, the “shrunken log2 fold change” value is -1.14. As for RRIRARPPRLPRPRPRPCMYPRP, the figure is -0.49; as for RRIRVRPPRLPRPRPRPWRDPRP, 0.202. Take RRIRVRPPRLPRPRPRPLGSPRP: the “shrunken log2 fold change” value is -0.115. On to RRIRLRPPRLPRPRPRPWLNPRP, for which the “shrunken log2 fold change” value is -0.183.
